Measurements: IntAct's records for PubMed 25914052

B1: General negative regulator of transcription subunit 4 (Saccharomyces cerevisiae), P34909 (parent)
chain: MMNPHVQENLQAIHNALSNFDTSFLSEDEEDYCPLCIEPMDITDKNFFPCPCGYQICQFCYNNIRQNPELNGRCPACRRKYDDENVRYVTLSPEELKMERAKLARKEKERKHREKERKENEYTNRKHLSGTRVIQKNLVYVVGINPPVPYEEVAPTLKSEKYFGQYGKINKIVVNRKTPHSNNTTSEHYHHHSPGYGVYITFGSKDDAARCIAQVDGTYMDGRLIKAAYGTTKYCSSYLRGLPCPNPNCMFLHEPGEEADSFNKRELHNKQQAQQQSGGTAFTRSGIHNNISTSTAGSNTNLLSENFTGTPSPAAMRAQLHHDSHTNAGTPVLTPAPVPAGSNPWGVTQSATPVTSINLSKNSSSINLPTLNDSLGHHTTPTTENTITSTTTTTNTNATSHSHGSKKKQSLAAEEYKDPYDALGNAVDFLDARLHSLSNYQKRPISIKSNIIDEETYKKYPSLFSWDKIEASKKSDNTLANKLVEILAIKPIDYTASVVQFLQSVNVGVNDNITITDNTKTPTQPIRLQTVSQQIQPPLNVSTPPPGIFGPQHKVPIQQQQMGDTSSRNSSDLLNQLINGRKIIAGN

Variants of: B1
Details: with not1_yeast CDC39, P25655
not1_yeast CDC39, P25655, sequence (P25655 whole entry): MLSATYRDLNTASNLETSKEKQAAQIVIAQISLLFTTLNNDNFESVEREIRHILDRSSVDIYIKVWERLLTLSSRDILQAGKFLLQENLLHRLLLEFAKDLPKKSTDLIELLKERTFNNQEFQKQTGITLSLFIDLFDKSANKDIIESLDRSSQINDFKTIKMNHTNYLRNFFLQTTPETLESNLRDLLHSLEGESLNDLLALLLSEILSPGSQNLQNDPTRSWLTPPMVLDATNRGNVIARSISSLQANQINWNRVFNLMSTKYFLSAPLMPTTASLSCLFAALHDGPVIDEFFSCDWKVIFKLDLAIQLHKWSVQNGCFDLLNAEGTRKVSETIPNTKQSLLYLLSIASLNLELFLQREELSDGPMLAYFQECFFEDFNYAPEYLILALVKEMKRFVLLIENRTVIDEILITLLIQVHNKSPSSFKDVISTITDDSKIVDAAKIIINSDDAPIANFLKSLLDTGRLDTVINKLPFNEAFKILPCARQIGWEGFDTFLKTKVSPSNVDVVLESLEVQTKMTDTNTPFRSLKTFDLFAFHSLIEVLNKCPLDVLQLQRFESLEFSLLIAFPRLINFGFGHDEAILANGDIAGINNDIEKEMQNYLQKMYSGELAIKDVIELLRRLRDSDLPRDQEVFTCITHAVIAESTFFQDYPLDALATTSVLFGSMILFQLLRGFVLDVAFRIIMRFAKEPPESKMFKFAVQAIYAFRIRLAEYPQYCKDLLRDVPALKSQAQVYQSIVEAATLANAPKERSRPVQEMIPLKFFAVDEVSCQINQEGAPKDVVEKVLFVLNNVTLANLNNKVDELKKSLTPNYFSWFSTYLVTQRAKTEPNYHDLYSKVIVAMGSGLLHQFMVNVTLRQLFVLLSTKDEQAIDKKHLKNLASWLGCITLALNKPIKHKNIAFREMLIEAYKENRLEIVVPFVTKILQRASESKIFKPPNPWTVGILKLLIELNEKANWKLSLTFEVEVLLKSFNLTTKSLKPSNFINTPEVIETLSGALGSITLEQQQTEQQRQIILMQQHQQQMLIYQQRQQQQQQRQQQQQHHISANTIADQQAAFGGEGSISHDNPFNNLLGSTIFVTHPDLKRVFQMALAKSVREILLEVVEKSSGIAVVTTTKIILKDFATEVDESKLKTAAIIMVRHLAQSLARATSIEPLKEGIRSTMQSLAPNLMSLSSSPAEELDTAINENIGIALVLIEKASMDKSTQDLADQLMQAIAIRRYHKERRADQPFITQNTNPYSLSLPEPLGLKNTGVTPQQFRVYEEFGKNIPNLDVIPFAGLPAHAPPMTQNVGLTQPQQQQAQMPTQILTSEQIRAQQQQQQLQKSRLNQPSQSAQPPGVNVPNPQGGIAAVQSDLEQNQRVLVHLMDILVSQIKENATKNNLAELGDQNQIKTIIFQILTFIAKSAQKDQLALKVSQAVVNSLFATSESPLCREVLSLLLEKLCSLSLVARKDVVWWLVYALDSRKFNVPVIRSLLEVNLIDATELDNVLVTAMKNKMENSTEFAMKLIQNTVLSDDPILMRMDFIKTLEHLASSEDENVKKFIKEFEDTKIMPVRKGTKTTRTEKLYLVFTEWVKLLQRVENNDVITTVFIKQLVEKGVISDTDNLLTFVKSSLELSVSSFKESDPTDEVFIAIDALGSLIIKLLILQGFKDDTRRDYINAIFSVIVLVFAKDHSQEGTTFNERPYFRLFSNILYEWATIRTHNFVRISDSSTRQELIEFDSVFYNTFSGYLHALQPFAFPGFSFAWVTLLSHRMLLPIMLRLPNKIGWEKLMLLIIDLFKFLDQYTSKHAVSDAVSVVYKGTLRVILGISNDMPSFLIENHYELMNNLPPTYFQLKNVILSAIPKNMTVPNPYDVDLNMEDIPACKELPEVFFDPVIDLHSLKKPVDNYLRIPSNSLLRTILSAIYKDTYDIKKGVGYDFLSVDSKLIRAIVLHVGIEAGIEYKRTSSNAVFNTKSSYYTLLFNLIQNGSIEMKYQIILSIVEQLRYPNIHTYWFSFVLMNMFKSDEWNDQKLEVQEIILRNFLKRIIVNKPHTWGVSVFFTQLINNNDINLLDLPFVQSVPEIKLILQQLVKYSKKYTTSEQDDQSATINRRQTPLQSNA

| Variant | effect of a mutation on the interaction |
| --- | --- |
| L463E;F464E | disrupting interaction |
| F464E;W466E | disrupting interaction |
